Laboratory results taken from patent publication US20250382371A1 (NATIONAL INSTITUTES OF BIOMEDICAL INNOVATION HEALTH AND …, published 2025).

Tests used:
[1] = molecular target: T1, cynomolgus monkey FCRL1 (XP_015310712), transiently expressed on 293T cells (cynomolgus monkey); assay: flow cytometry on 293T cells transiently expressing cynomolgus monkey FCRL1
T1 chain: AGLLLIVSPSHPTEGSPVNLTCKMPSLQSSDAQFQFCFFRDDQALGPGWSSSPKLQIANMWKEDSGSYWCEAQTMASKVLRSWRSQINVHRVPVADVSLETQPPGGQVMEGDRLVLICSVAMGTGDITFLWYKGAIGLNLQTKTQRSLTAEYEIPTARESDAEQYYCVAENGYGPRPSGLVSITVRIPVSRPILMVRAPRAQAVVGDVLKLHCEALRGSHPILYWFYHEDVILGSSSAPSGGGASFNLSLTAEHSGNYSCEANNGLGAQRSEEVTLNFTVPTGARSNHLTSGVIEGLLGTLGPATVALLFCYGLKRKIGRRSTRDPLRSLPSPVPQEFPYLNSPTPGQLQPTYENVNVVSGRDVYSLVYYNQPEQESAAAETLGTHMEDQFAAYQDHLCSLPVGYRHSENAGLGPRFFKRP
Method: An antigen-specific reactivity of the novel anti-human FCRL1 mouse antibody obtained in Example 4 was evaluated by Flow Cytometry (FCM). FCRL1 antigen-expressing cells were prepared by transiently expressing the recombinant FCRL1 antigen on 293T cells. A codon-optimized cDNA was synthesized based on the amino acid sequence of human FCRL1 (NCBI accession number: NP_443170.1) or cynomolgus monkey FCRL1 (XP_015310712), and a fragment in which the sequence of an internal ribosome entry site (IRES) derived from the encephalomyocarditis virus (EMCV) and the sequence of TagBFP were arranged in tandem was cloned into pcDNA 3.1hygro to construct an expression plasmid vector for human FCRL1 or cynomolgus monkey FCRL1. […]
(§1) Cells that transiently expressed human FCRL1 or cynomolgus monkey FCRL1 were reacted with a 3-fold dilution series of each antibody starting from 100 nM (15 μg/ml) at 12 points. Data obtained by the FCM was analyzed, and a binding amount of each antibody bound to the cell was calculated as a fluorescence amount MFI derived from the PE-labeled secondary antibody. An antibody concentration and the measured MFI were plotted with respect to a logarithm of the antibody concentration, a saturated binding curve of each antibody was obtained, and regression was performed by a 4-parameter logistic model.

[2] = molecular target: T2, human FCRL1 (NCBI accession number: NP_443170.1), transiently expressed on 293T cells (human, UniProt Q96LA6 17-429); assay: flow cytometry on 293T cells transiently expressing human FCRL1; apparent KD from EC50 of a 4-parameter fit
T2 construct: also called Fc receptor-like protein 1; CD307a
T2 sequence: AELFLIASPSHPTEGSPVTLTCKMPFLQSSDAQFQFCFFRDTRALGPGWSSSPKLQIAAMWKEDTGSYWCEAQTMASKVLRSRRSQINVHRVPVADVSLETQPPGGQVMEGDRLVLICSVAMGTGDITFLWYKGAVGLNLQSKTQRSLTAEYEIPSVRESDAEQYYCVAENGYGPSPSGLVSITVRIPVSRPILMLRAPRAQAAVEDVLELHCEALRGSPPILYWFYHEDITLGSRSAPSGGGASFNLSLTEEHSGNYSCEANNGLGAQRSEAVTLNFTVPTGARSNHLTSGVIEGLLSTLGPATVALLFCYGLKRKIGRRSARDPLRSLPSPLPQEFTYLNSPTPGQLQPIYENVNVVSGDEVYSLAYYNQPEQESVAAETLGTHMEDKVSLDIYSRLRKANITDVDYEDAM
Method: An antigen-specific reactivity of the novel anti-human FCRL1 mouse antibody obtained in Example 4 was evaluated by Flow Cytometry (FCM). FCRL1 antigen-expressing cells were prepared by transiently expressing the recombinant FCRL1 antigen on 293T cells. A codon-optimized cDNA was synthesized based on the amino acid sequence of human FCRL1 (NCBI accession number: NP_443170.1) or cynomolgus monkey FCRL1 (XP_015310712), and a fragment in which the sequence of an internal ribosome entry site (IRES) derived from the encephalomyocarditis virus (EMCV) and the sequence of TagBFP were arranged in tandem was cloned into pcDNA 3.1hygro to construct an expression plasmid vector for human FCRL1 or cynomolgus monkey FCRL1. The purified expression vector was transfected into 293T cells, cells were collected 2 days after transfection, and binding with each antibody was confirmed by FCM.
As the secondary antibody, when the sample is a mouse antibody, R-Phycoerythrin (PE) F(ab′)₂ Fragment Goat Anti-Mouse IgG (H+L) (Jackson ImmunoResearch) was used, and when the sample is a human antibody or a human chimeric antibody, R-Phycoerythrin (PE) F(ab′)₂ Fragment Goat Anti-Human IgG, Fcγ Fragment Specific (Jackson ImmunoResearch) was used. A solution of each secondary antibody was prepared by diluting the stock solution 200 times with an FCM buffer. After washing once, cells in each well were suspended with 100 μL of FCM buffer, and binding to each antibody was confirmed by flow cytometry (FCM).
as §1

B1: anti-human FCRL1 mouse monoclonal antibody DK610 (antibody, V domains shown)
VH: DVLLQESGPGLVKPSQSLSLTCSVAGYSITSDYAWNWLRRFPGNRLEWMGYITYSGSTAYHPSLKGRISFTRDTSQNQVFLQLHSVTTEDSATYYCAQGGTLITTWFLRWGQGTLVTVSA
VL: DIVLTQSPASLAVSLGQRATISCRASKSVSTSDYNYMHWYRQKPGQPPKLFIYLASNLESGVPARFSGSGSGTDFTLNIHPVEEEDAATYYCQQSRELPSTFGGGTKLEIK
Q: Which results are given for B1?
A: binding result [1]: no binding; Kd [2]: 0.4 nM
